Results on 15 sequences are retold here after the DeepSol protein solubility set.

This series can be described thus: soluble on expression in E. coli; label from the status in PepcDB or PDB records.
Turning to “MPGAAAKGSELSERIEGFVETLKRGGGQRSSEDMARETLGLLRRLITDHHWNNAGDLMDLIRREGRRMTAAQPSETTVGNMVRRVLKIIREEYGRLHGRSDESDQQESLHKLLTSGGLSEDFSFHFAPLKANIIEAINELLVELEGTMENIAAQALEHIHSNEVIMTIGYSRTVEAFLKEAARKRKFHVIVAECAPFCQGHEMAVNLSKEGIETTVMTDAAIFAVMSRVNKVIIGTKTILANGSLRAVAGTHTLALAAKHHSTPLIVCAPMFKLSPQFPSEEDSFHKFVAPEEVLPFTEGDILEKVSVHCPVFDYVPPDLITLFISNIGGNAPSYIYRLMSELYHPDDHVL”, the “soluble on expression in E. coli” value was “not soluble”. In the case of “MSLEKKITPSELELNEFIKIINEMSGIDLTDKKNILALKLNKFLEGTNTKNFSEFLGKLKSNRQLKQETLDFVTIGETYFLRELAQLKEIIYYAKSLEKRVNILSAPCSSGEEVYSLALLAAQNFIKDMYILGVDINSSVIEKAKLGKYQGRTLQRLSESEKRRFFLESEDKFYTINKNELCTCKFELCNVFEEKFSRLGKFDIIASRNMIIYFDHESKLKLMERFHRILNDKGRLYVGNADLIPETIYFKKIFSPRGVYYEKEGHHHHHH” it was “soluble”. In the case of “MSSSDHIHVPDGLAESYSRSGGEEGRAWIAGLPALVARCVDRWELKRDGGVRSGEASLVVPVLRADGTRAALKLQMPREETTAALIGLRAWGGDGMVRLLDHDEESSTMLLERLDGSRTLASVEDDDEAMGVLAGLLNRLHSVPAPPGLRGLGEIAGAMVEEVPSAVDSLADPEDRSRLRGWASAVAELVGEPGDRVLHWDLHYENVLAAEREPWLAIDPEPLVGDPGFDLWPALDTGWERIEATGDARRVVRRRFDLLTEALELDRGRAAGWTLARLLQNTLWDIEDGLTAIAPSQIAVAEALAKP” it was “not soluble”; in that of “MSATSVDTQRTKGQDNKVQNGSLHQKDTVHDNDFEPYLTGQSNQSNSYPSMSDPYLSSYYPPSIGFPYSLNEAPWSTAGDPPIPYLTTYGQLSNGDHHFMHDAVFGQPGGLGNNIYQHRFNFFPENPAFSAWGTSGSQGQQTQSSAYGSSYTYPPSSLGGTVVDGQPGFHSDTLSKAPGMNSLEQGMVGLKIGDVSSSAVKTVGSVVSSVALTGVLSGNGGTNVNMPVSKPTSWAAIASKPAKPQPKMKTKSGPVMGGGLPPPPIKHNMDIGTWDNKGPVPKAPVPQQAPSPQAAPQPQQVAQPLPAQPPALAQPQYQSPQQPPQTRWVAPRNRNAAFGQSGGAGSDSNSPGNVQPNSAPSVESHPVLEKLKAAHSYNPKEFEWNLKSGRVFIIKSYSEDDIHRSIKYSIWCSTEHGNKRLDSAFRCMSSKGPVYLLFSVNGSGHFCGVAEMKSPVDYGTSAGVWSQDKWKGKFDVQWIFVKDVPNNQLRHIRLENNDNKPVTNSRDTQEVPLEKAKQVLKIISSYKHTTSIFDDFAHYEKRQEEEEVVRKERQSRNKQ”, “soluble”; in that of “MGSDKIHHHHHHMQTHQELYLPRMGCGTWAWGNQLLWGYNESMDEQLQAVFNLCVSNGVTLFDTGDSYGTGRLNGRSELLLGQFAQEYQGVNQENICIATKLAAYPWRWTRQSMINACKSSAQRLGRNVDLVQMHWSTANYAPWQESGLLDGLADLYEQGLVKGVGLSNYGTKRLQRVHQKFAERGVPIKTLQVQYSLLSTYPVTELGLKDVCDQLGIKLIAYSPLALGILTGKYSEKGPFPRGVRGLLFRQLLPGVRSLLQCLQDVAQSRNKTMSQVALNWCIAKGTIPIPGAKSVKQAQENIGALGWQLDSGEIAELDKAAASSDKKMVQNIFQTK”, “not soluble”. For “MSLRFIDKLYQANLGKLTAGISPAALGTAYYSWFAQLLQSPGSMLRLAYYPLLHANDYLSNLFKYDKPRDGKDVRFHTENWSYYPWRLWAEQFLQFEDWCLQASSKVPGIPLHVKRTVTFSTRQILDALSPSNFVLTNPDLLQETIRSNGQNLIRGTELAFQDFVEKITGSPPAGVENFIPGKQVAVTEGKVVYSNHLIELIQYTPQTEKVYKEPILILPAWIMKYYILDLLPENSLVNWLVRQGHTVFIVSWRNPTKEDRNIGLDDYYKLGAMDAINAVSNAIPHTKIHLMGYCLGGTLALLTAAAMAHDHDNRLKTLSLLAAQGDFIDAGELLLFITKSEVSFLKSMMWEQGYLDTKQMSGTFQMLRSYDLIWSKMVQDYMHGTQRGMIPLLAWNADATRMPYKMHSEYLEKLFLNNDFAEGRFILDGKPVVGENIRMPAFVVSTEKDHVAPWKSVYKTHLLINSDITFVLTNGGHNAGIVSEPGHEGRYYRIRERKMDSTYLDPTNWLKKAELREGSWWIAWHDWLVNHSSQKQVSAPKLDKNLPNAPGKYVLQKEGHHHHHH”, the “soluble on expression in E. coli” value is recorded as “not soluble”. Turning to “MAEKTVYRVDGLSCTNCAAKFERNVKEIEGVTEAIVNFGASKITVTGEASIQQVEQAGAFEHLKIIPEKEA”, the “soluble on expression in E. coli” value is recorded as “soluble”. In the case of “MSVDKSPVYEVKAVPVEKVLANDYNPNVVAPPEMKLLELSIWEDGFTMPCVCYYNKEEDNYILVDGYHRYTVLKTSKRIYKRENGLLPIVVIDKDLSNRMSSTIRHNRARGMHN” it was “soluble”; in that of “SAKVSELYDVTWEEMRDKMRKWREENSRNSEQIVEVGEELINEYASKLGDDIWIIYEQVMIAALDYGRDDLALFCLQELRRQFPGSHRVKRLTGMRFEAMERYDDAIQLYDRILQEDPTNTAARKRKIAIRKAQGKNVEAIRELNEYLEQFVGDQEAWHELAELYINEHDYAKAAFCLEELMMTNPHNHLYCQQYAEVKYTQGGLENLELSRKYFAQALKLNNRNMRALFGLYMSASHIASNPKASAKTKKDNMKYASWAASQINRAYQFAGRSKKETKYSLKAVEDMLETLQITQS”, “not soluble”. On to “MPSGLEQCAPRCRALLQGESGVQIQGHYELKFEAVREAFAALFEDSQERGAALCIQVGGETVIDLWAGTADKDGAEAWHSDTIANLFSCTKTFTAVTALQLVAEGKLKLDAPVADYWPEFAAAGKAAITLRQLLCHQAGLPAVRELLPAQALYEWQTMVDALAAEQPWWTPGEGHGYAAITYGWLVGELIRRADGRGPGESIVARVARPLGLDFHVGLADEEFYRVAHIARGKGNMGDAAAQRLLQVTMREPDAMSTRAFTNPPSILTSTNKPEWRRMQQPAANGHGNARSLAGFYSGLLDGSLLEADMLEELTREHSLGMDKTLLTQTRFGLGCMLDQPQVANATFGLGARAFGHPGAGGSIGFADPEHDVAFGFVTNTLGPYVLMDPRAQKLVRVLSDCLLEHHHHHH”, for which the “soluble on expression in E. coli” value was “not soluble”. As for “YRATKLWNEVTTSFRAGMPLRKHRQHFKKYGNCFTAGEAVDWLYDLLRNNSNFGPEVTRQQTIQLLRKFLKNHVIEDIKGRWGSENVDDNNQLFRFPA”, the “soluble on expression in E. coli” value is “soluble”. For the sequence “MNPQRDCKEFKVETRTITEVQSEPIYPTGRCGPVLARIPVVISQSKVHIDIESRVCFDHSVFDIYSHSRNIYLTQCKLLNMGNKRYGKIYLNGYVSENIAYAAYCMKGREYGNKKSTSADMLYKTLKVPFECVAKIEYCTSPVFKTSNGFIPVALPDKENSPEDSYFSGERLFCELDEASICESNVERKKLFSRINAGEDSFDTLTEYLVLSITFTLLQWQQVRIPGYFPNNPHSQI”, the “soluble on expression in E. coli” value is on record as “not soluble”. In the case of “MNLFGQKDRGNHVSGVDRGKVIMYGLSTCVWCKKTKKLLTDLGVDFDYVYVDRLEGKEEEEAVEEVRRFNPSVSFPTTIINDEKAIVGFKEKEIRESLGF” it was “soluble”. For the sequence “MGSDKIHHHHHHMRASSHLPQLHGRLDLTFERRRGTTRLVASEQTPPLNVSRVLRTEEVDLATVYLVETSGGVVSGDSQTIAIYVGEGARVELIPQSATKVYPSRKQGESSTQQVWLRVDEGAAAFWKPESIIPFRKASFLQSTRFHLHSSSTFFYGDMLTPGRVHHNERFQYEQVDSLVEIYLDETLVVHDRVHLQPKDQLQTIGRLDGYSYYGAVWMHAPILKGAHLEQWMENGGQNDRFAYTCVAEGLIHVRWLSESSWRLRAALNDLYTAFRTFALKGE”, the “soluble on expression in E. coli” value is given as “not soluble”.

As to “MDQEIKSLELNITQLSAITGAHRQTIASRLKGVKTSGGNGSNLKIYRLVDILTAMMTMPAVTGENDPNKMKPSDRRAWFQSEMTRIELEKEMRTLIPASEVLSVYAVMAKTVVKTLEILPDLLERDAALPPDALEMTQKIIDQLREDLASMTYQACADAINGDDDDNGDEGQEEEQE”, the “soluble on expression in E. coli” value is “not soluble”.
